These results are taken from patent US6417328B1, “Trail receptors, nucleic acids encoding the same, and methods of use thereof” (Thomas Jefferson Univeristy, priority 1997, dated 2002).

Common to all, as to type: cell-based, human
Test [1] deals with DR5-induced apoptosis in MCF7 cells. The experiment in a line: Inhibition of DR5-induced apoptosis in transfected MCF7 cells. From the text:
(§1) For apoptosis assays the mammalian double expression vector pRSC (Akporiaye E. T. et al. (1997) BioTech. 22, 68) was used, which allows for expression of lacZ under the RSV promoter and the test cDNA (DR4, DR4A, DR5, DR5A, TRAIL-R3) under the CMV promoter. CrmA, FLAME-1, caspase-8-DN (C345A) or caspase-10-DN (C358A) (Alnemnri E. S. et al. (1997) J. Biol. Chem. 272, 18542-18545) were expressed using pcDNA3 (Invitrogen).
(§2) FIG. 3 illustrates that expression of DR5 but not TRAIL-R3 induces apoptosis in human cells. MCF7 (FIG. 3A) and 293 (FIG. 3B) cells were transfected with the indicated pRSC-lacZ constructs. Thirty hours after transfection cells were stained with Pgal and examined for morphological signs of apoptosis. The graphs show the percentage of round blue apoptotic cells (mean +SD) as a function of total blue cells under each condition (≧23).
(§3) MCF7 cells were transfected with DR4 or DR5 expression constructs in the presence of z-VAD-fmk (20 μM) or co-transfected with a four-fold excess of a CrmA, caspase-8-DN, caspase-10-DN or FLAME-1 construct or an empty vector. The data are represented as in FIGS. 3A and 3B.

The subject of test [2] is DR4-induced apoptosis in MCF7 cells. The experiment in a line: Inhibition of DR4-induced apoptosis in transfected MCF7 cells.
Excerpt: as §1, §2, §3

In the next test the test system is apoptosis by TRAIL. The experiment in a line: Inhibition of apoptosis by TRAIL (FIG. 3F).
For the next test, the system named is apoptosis by TNF-α. The experiment in a line: Inhibition of apoptosis by TNF-α (FIG. 3F).
In a further test the test system is 293 cells. The experiment in a line: Apoptosis induction by transient expression in 293 cells. The settings on record: pRSC-lacZ constructs, thirty hours after transfection (FIG. 3B).
Excerpt: as §1, §2

Test [3] concerns MCF7 cells. Kind of test: Apoptosis induction by transient expression in MCF7 cells. The following applies: pRSC-lacZ constructs, thirty hours after transfection (FIG. 3A).
Excerpt: as §1, §2

The subject of test [4] is MCF7 cells. The experiment in a line: Blocking of TRAIL-induced apoptosis in MCF7 cells. The settings on record: MCF7 cells transfected 36 h, then soluble TRAIL 250 ng/ml for 8 h (FIG. 3C). On the procedure:
Cells were stained 8 hours later with propidium iodide and the nuclei were examined by fluorescence microscopy.
MCF7 cells were transfected with TRAIL-R3 or vector alone for 36 h, then treated with soluble TRAIL (250 ng/ml) for 8 h. The data are represented as in FIGS. 3A and 3B, after subtracting the background killing (12-15%) as a result of transfection.

[5] abbreviates: MCF7 cells co-transfected with four-fold excess of inhibitor construct (FIG. 3D, 3E).

Residues, ends and D or L forms follow the SMILES beside them. *: point of attachment. Cbz = O=C(OCc1ccccc1)*; CH2F = FC*

In the case of `COC(=O)C[C@H](NC(=O)[C@H](C)NC(=O)[C@@H](NC(=O)OCc1ccccc1)C(C)C)C(=O)CF` [z-VAD-fmk, reference compound] (Cbz-Val-Ala-Asp(OMe)-CH2F), the “Inhibition of DR5-induced apoptosis” value in test [1] (MCF7 cells transfected with DR5 construct in the presence of inhibitor 20 μM (FIG. 3D)) is reported as “efficiently blocked”. In addition, in test [2] (MCF7 cells transfected with DR4 construct in the presence of inhibitor 20 μM (FIG. 3D)), the “Inhibition of DR4-induced apoptosis” value was “inhibited”.

Turning to “DR5s: alternatively spliced isoform of DR5, 350 amino acids (SEQ ID NO:6), truncated death domain”, the “Inhibition of apoptosis by TRAIL” value in the test with apoptosis by TRAIL was “substantially inhibits”. Besides, the “Inhibition of apoptosis by TNF-α” value with apoptosis by TNF-α was “not”.

B1: TRAIL-R3: human TRAIL receptor protein of 299 amino acids (SEQ ID NO:4) without cytoplasmic domain (protein, listed as Homo sapiens)
chain: MQGVKERFLPLGNSGDRAPRPPDGRGRVRPRTQDGVGNHTMARIPKTLKFVVVIVAVLLPVLAYSATTARQEEVPQQTVAPQQQRHSFKGEECPAGSHRSEHTGACNPCTEGVDYTNASNNEPSCFPCTVCKSDQKHKSSCTMTRDTVCQCKEGTFRNENSPEMCRKCSRCPSGEVQVSNCTSWDDIQCVEEFGANATVETPAAEETMNTSPGTPAPAAEETMNTSPGTPAPAAEETMTTSPGTPAPAAEETMTTSPGTPAPAAEETMTTSPGTPASSHYLSCTIVGIIVLIVLLIVFV
With B1, the “Induction of apoptosis by transient expression” value in the test with 293 cells and with MCF7 cells [3] was “incapable of inducing apoptosis” throughout. Moreover, in the test on MCF7 cells [4], the “Blocking of TRAIL-induced apoptosis by transient (ectopic) expression” value is recorded as “significantly blocked”.

B2: caspase-8-DN: dominant negative inhibitor caspase-8 (C345A), expressed using pcDNA3 (protein, UniProt Q14790 1-479, looked up, variant C345A)
chain: MDFSRNLYDIGEQLDSEDLASLKFLSLDYIPQRKQEPIKDALMLFQRLQEKRMLEESNLSFLKELLFRINRLDLLITYLNTRKEEMERELQTPGRAQISAYRVMLYQISEEVSRSELRSFKFLLQEEISKCKLDDDMNLLDIFIEMEKRVILGEGKLDILKRVCAQINKSLLKIINDYEEFSKERSSSLEGSPDEFSNGEELCGVMTISDSPREQDSESQTLDKVYQMKSKPRGYCLIINNHNFAKAREKVPKLHSIRDRNGTHLDAGALTTTFEELHFEIKPHDDCTVEQIYEILKIYQLMDHSNMDCFICCILSHGDKGIIYGTDGQEAPIYELTSQFTGLKAPSLAGKPKVFFIQACQGDNYQKGIPVETDSEEQPYLEMDLSSPQTRYIPDEADFLLGMATVNNCVSYRNPAEGTWYIQSLCQSLRERCPRGDDILTILTEVNYEVSNKDDKKNMGKQMPQPTFTLRKKLVFPSD
As for B2, in test [1] (setting [5]), the “Inhibition of DR5-induced apoptosis” value is listed as “significantly inhibited”. Further, the “Inhibition of DR4-induced apoptosis” value in test [2] (setting [5]) is “significantly inhibited”.

B3: DR5: human TRAIL receptor protein of 411 amino acids (SEQ ID NO:2) with cytoplasmic death domain (protein, listed as Homo sapiens)
chain: MEQRGQNAPAASGARKRHGPGPREARGARPGLRVPKTLVLVVAAVLLLVSAESALITQQDLAPQQRVAPQQKRSSPSEGLCPPGHHISEDGRDCISCKYGQDYSTHWNDLLFCLRCTRCDSGEVELSPCTTTRNTVCQCEEGTFREEDSPEMCRKCRTGCPRGMVKVGDCTPWSDIECVHKESGIIIGVTVAAVVLIVAVFVCKSLLWKKVLPYLKGICSGGGGDPERVDRSSQRPGAEDNVLNEIVSILQPTQVPEQEMEVQEPAEPTGVNMLSPGESEHLLEPAEAERSQRRRLLVPANEGDPTETLRQCFDDFADLVPFDSWEPLMRKLGLMDNEIKVAKAEAAGHRDTLYTMLIKWVNKTGRDASVHTLLDALETLGERLAKQKIEDHLLSSGKFMYLEGNADSAMS
With B3, the “Induction of apoptosis by transient expression” value in the test with 293 cells and with MCF7 cells [3] was “triggers apoptosis” each time.
